According to patent US8114831B2, “Guanylate cyclase receptor agonists for the treatment of tissue inflammation and carcinogenesis” (Synergy Pharmaceuticals Inc., priority 2001, dated 2012):
Positions of bridges follow the written chain, without caps; N, C: chain ends. No end group written: not given here.

What was measured:
[1] = target: T1, guanylate cyclase receptor (Homo sapiens, UniProt P25092); assay: T84 cell-based assay for determining the intracellular levels of cGMP; conditions: for ability to enhance intracellular levels of cGMP (ranking in words): T84 cell-based assay, text summary of Table 4; for cGMP Level (intracellular cGMP level observed in T84 cells): 1 micromolar peptide agonist, 30 minutes
T1 construct: host or cells: T84 human colon carcinoma cells
T1 sequence (P25092 24-1073): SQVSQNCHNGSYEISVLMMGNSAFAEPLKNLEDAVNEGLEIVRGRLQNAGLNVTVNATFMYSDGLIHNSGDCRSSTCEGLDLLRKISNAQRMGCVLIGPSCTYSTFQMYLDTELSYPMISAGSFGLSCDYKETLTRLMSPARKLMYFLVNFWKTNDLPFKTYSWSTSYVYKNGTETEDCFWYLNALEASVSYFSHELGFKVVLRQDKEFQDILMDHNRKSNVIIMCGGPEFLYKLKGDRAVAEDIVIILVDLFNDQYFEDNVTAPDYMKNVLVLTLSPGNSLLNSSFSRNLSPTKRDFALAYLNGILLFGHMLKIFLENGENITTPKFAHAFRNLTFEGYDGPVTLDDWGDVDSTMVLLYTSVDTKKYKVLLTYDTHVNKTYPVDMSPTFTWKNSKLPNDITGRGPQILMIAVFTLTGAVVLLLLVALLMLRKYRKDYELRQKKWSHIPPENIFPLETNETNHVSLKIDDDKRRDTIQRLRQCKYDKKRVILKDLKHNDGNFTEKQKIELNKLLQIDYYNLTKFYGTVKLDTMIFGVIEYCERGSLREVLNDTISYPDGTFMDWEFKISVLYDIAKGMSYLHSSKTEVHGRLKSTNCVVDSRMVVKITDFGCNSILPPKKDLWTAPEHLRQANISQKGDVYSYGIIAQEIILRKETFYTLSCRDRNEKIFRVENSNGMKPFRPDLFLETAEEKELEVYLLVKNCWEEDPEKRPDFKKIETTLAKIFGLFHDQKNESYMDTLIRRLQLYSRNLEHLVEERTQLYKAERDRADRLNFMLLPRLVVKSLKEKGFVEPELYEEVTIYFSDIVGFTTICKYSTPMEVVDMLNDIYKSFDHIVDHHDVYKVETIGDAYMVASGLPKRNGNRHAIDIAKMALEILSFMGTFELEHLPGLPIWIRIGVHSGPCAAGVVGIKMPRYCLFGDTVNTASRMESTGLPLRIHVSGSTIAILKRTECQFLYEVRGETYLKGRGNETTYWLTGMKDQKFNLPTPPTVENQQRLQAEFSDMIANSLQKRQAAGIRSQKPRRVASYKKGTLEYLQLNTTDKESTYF
Experimental: Cell Culture: Human T84 colon carcinoma cells were obtained from the American Type Culture Collection at passage 52. Cells were grown in a 1:1 mixture of Ham's F-12 medium and Dulbecco's modified Eagle's medium (DMEM) supplemented with 10% fetal bovine serum, 100 U penicillin/ml, and 100 μg/ml streptomycin. The cells were fed fresh medium every third day and split at a confluence of approximately 80%.
(§1) T84 cell-based assay for determining the intracellular levels of cGMP: Peptide analogs were custom synthesized by Multiple Peptide Systems, San Diego, Calif., and by Princeton Biomolecules, Langhorne, Pa. Biological activity of the synthetic peptides was assayed as previously reported (15). Briefly, the confluent monolayers of T-84 cells in 24-well plates were washed twice with 250 μl of DMEM containing 50 mM HEPES (pH 7.4), pre-incubated at 37° C. for 10 min with 250 μl of DMEM containing 50 mM HEPES (pH 7.4) and 1 mM isobutylmethylxanthine (IBMX), followed by incubation with peptide analogs (0.1 nM to 10 μM) for 30 min. The medium was aspirated, and the reaction was terminated by the addition of 3% perchloric acid. Following centrifugation, and neutralization with 0.1 N NaOH, the supernatant was used directly for measurements of cGMP using an ELISA kit (Caymen Chemical, Ann Arbor, Mich.).

[2] = Heat stability: peptide solutions heated at 95° C., then tested for biological activity in the T84 cell-based assay; format: physicochemical; conditions: 10 micromolar solution, read-out T84 cell-based assay
Experimental: as §1
To examine heat stability, 10 micromolar solutions of peptide analogs were heated at 95° C. for up to 90 minutes. At specific times during the treatment, samples were tested for their biological activity in the T84 cell-based assay. […] Based on energy calculations and 3D structure, we expected that the negatively charged carboxyl group of the side chain in position 3 of SEQ ID NO:1 specifically interacts with a positively charged binding site on the receptor. […] At the same time, to ensure efficiency of this particular interaction, an entire system of the long-range electrostatic interactions between ligand and receptor should be well balanced. Since the Glu^2 side chain presents more conformational possibilities compared to the Asp^2 side chain, this balance may be slightly changed in SP302 (double substitution of Asp's for Glu's) compared to SP304 (single substitution of Asp^3 for Glu^3). Indeed, biological activity of SP 304 is the best amongst the analogs evaluated.

[3] = target: T1, guanylate cyclase receptor; assay: T84 cell-based assay for determining the intracellular levels of cGMP; conditions: for intracellular production of cGMP at different pH values: pH 5 to 7

ability to enhance intracellular levels of cGMP (ranking in words) [1] | cGMP Level (intracellular cGMP level observed in T84 cells) ([1]; T84 cells) | intracellular cGMP level in combination with sulindac sulfone ([1]; T84 cells, combination with cGMP dependent phosphodiesterase inhibitor sulindac sulfone) | intracellular cGMP level in combination with Zaprinast ([1]; T84 cells, combination with cGMP dependent phosphodiesterase inhibitor zaprinast) | enhancement of intracellular cGMP, comparison among peptides ([3]; pH between 6.5 and 7) | Substance | biological activity after heating for 60 minutes [2] | biological activity after heating for 90 minutes, relative to original value [2] | intracellular production of cGMP at different pH values [3]
somewhat weaker | 195 pmol/well | – | – | – | [Glu^2]-UG (NEDCELCVNVACTGCL; ends and bridges not checked; cysteine pairing not given here; UniProt Q16661 97-112, looked up, variant D2E) [SP 303, uroguanylin analog with Glu in position 2] | did not change significantly | about 80% | enhanced intracellular production of cGMP
second in effectiveness | 275 pmol/well | – | – | – | SP 316: 14-residue peptide Glu Cys Glu Leu Cys Val Asn Val Ala Cys Thr Gly Cys Leu, positions 3-16, disulfides 4-12 and 7-15 (ECELCVNVACTGCL; disulfide 2-10, 5-13) | – | – | –
somewhat weaker | 225 pmol/well | – | – | – | [Glu^2, Glu^3]-UG (NEECELCVNVACTGCL; ends and bridges not checked; cysteine pairing not given here; UniProt Q16661 97-112, looked up, variant D2E D3E) [SP 302, uroguanylin analog, double substitution of Asp's for Glu's] | did not change significantly | about 80% | enhanced intracellular production of cGMP
somewhat weaker | 205 pmol/well | – | – | – | bicyclo[4,12; 7,15]Asn^1-Asp^2-Asp^3-Cys^4-Glu^5-Leu^6-Cys^7-Val^8-Asn^9-Val^10-Ala^11-Cys^12-Thr^13-Gly^14-Cys^15-Leu^16 (NDDCELCVNVACTGCL; disulfide 4-12, 7-15; listed as Homo sapiens) [SP 301, human uroguanylin, parent compound, reference compound] | did not change significantly | about 80% | enhanced intracellular production of cGMP

Substance | ability to enhance intracellular levels of cGMP (ranking in words) [1] | cGMP Level (intracellular cGMP level observed in T84 cells) ([1]; T84 cells) | intracellular cGMP level in combination with sulindac sulfone ([1]; T84 cells, combination with cGMP dependent phosphodiesterase inhibitor sulindac sulfone) | intracellular cGMP level in combination with Zaprinast ([1]; T84 cells, combination with cGMP dependent phosphodiesterase inhibitor zaprinast) | enhancement of intracellular cGMP, comparison among peptides ([3]; pH between 6.5 and 7) | biological activity after heating for 60 minutes [2] | biological activity after heating for 90 minutes, relative to original value [2] | intracellular production of cGMP at different pH values [3]
Asn^1 Asp^2 Glu^3 Cys^4 Glu^5 Leu^6 Cys^7 Val^8 Asn^9 Val^10 Ala^11 Cys^12 Thr^13 Gly^14 Cys^15 Leu^16 (NDECELCVNVACTGCL; disulfide 4-12, 7-15) [SP 304, [Glu^3]-UG, [4,12; 7,15] bicycle with two disulfide linkages] | greatest enhancement of intracellular cGMP | 315 pmol/well | synergistic increases | synergistic increases | greatest enhancement | did not change significantly | remained unaltered | enhanced intracellular production of cGMP
